{
  "source": "patent US20010004522A1",
  "about": "“KINASE ACTIVITY MEASUREMENT USING FLUORESCENCE POLARIZATION” (priority 1997, published 2001)",
  "molecules": {"B1": {"name": "PKC epsilon: PKC isozyme tested for phosphorylation of GFAP peptide (protein, UniProt Q02156 1-737, looked up)", "Protein kinase C epsilon type": "MVVFNGLLKIKICEAVSLKPTAWSLRHAVGPRPQTFLLDPYIALNVDDSRIGQTATKQKTNSPAWHDEFVTDVCNGRKIELAVFHDAPIGYDDFVANCTIQFEELLQNGSRHFEDWIDLEPEGRVYVIIDLSGSSGEAPKDNEERVFRERMRPRKRQGAVRRRVHQVNGHKFMATYLRQPTYCSHCRDFIWGVIGKQGYQCQVCTCVVHKRCHELIITKCAGLKKQETPDQVGSQRFSVNMPHKFGIHNYKVPTFCDHCGSLLWGLLRQGLQCKVCKMNVHRRCETNVAPNCGVDARGIAKVLADLGVTPDKITNSGQRRKKLIAGAESPQPASGSSPSEEDRSKSAPTSPCDQEIKELENNIRKALSFDNRGEEHRAASSPDGQLMSPGENGEVRQGQAKRLGLDEFNFIKVLGKGSFGKVMLAELKGKDEVYAVKVLKKDVILQDDDVDCTMTEKRILALARKHPYLTQLYCCFQTKDRLFFVMEYVNGGDLMFQIQRSRKFDEPRSRFYAAEVTSALMFLHQHGVIYRDLKLDNILLDAEGHCKLADFGMCKEGILNGVTTTTFCGTPDYIAPEILQELEYGPSVDWWALGVLMYEMMAGQPPFEADNEDDLFESILHDDVLYPVWLSKEAVSILKAFMTKNPHKRLGCVASQNGEDAIKQHPFFKEIDWVLLEQKKIKPPFKPRIKTKRDVNNFDQDFTREEPVLTLVDEAIVKQINQEEFKGFSYFGEDLMP"}, "B2": {"name": "PKC ε lot #6747: Protein Kinase C ε purified to near homogeneity, current lot of the enzyme (protein, UniProt Q02156 1-737, looked up)", "Protein kinase C epsilon type": "B1 Protein kinase C epsilon type"}},
  "key": {"EGF receptor": {"biological_target": "EGF receptor (Homo sapiens, UniProt P00533)", "sequence (P00533 25-1210)": "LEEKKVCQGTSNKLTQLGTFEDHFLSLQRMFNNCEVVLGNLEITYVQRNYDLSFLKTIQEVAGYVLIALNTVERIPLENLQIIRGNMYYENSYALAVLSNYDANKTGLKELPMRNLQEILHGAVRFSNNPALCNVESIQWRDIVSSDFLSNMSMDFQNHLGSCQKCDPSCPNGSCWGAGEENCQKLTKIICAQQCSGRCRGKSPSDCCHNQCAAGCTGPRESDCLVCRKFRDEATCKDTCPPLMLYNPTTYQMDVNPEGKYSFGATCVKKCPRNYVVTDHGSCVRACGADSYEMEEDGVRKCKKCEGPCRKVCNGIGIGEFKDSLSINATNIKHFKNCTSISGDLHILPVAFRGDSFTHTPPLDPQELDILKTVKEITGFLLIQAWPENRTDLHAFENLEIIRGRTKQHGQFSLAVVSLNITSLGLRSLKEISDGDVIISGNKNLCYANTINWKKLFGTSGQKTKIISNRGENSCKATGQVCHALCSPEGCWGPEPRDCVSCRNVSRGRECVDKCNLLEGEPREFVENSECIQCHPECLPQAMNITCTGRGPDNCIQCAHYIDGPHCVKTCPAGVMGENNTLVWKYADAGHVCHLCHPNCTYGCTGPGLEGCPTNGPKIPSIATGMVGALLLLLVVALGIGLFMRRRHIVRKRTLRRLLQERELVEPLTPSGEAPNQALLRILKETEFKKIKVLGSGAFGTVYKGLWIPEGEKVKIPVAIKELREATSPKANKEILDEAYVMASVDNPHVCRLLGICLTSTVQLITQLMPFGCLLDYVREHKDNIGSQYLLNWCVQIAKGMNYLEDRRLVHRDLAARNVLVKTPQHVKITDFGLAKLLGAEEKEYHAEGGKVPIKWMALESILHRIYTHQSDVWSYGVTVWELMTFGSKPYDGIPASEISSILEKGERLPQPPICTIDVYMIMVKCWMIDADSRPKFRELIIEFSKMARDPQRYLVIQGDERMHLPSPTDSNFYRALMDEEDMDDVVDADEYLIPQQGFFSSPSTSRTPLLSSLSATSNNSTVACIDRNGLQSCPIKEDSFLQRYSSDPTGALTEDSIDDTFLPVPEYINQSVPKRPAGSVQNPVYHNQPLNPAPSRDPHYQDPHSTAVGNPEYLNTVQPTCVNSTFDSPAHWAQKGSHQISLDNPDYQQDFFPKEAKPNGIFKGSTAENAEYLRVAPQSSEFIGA", "settings": "50 mM EDTA, ~12.5 nM EGF receptor, 30° C., polarization read every 10 seconds"}, "[1]": {"biological_target": "T1, T-cell protein tyrosine phosphatase (Homo sapiens, UniProt P17706)", "T1 construct": "purchased New England Biolabs", "T1 sequence (P17706 1-317 limits assumed)": "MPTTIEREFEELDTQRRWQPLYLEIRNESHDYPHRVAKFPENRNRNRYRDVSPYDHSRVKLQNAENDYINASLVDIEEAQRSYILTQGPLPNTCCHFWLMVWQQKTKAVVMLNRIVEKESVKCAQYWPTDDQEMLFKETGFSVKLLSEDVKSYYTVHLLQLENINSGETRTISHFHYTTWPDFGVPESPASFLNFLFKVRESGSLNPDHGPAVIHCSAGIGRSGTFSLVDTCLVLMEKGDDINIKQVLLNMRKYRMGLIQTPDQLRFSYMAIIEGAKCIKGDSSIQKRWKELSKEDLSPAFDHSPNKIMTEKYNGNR", "experiment": "Phosphatase activity by fluorescence polarization", "type": "biochemical", "settings": "1.0 mM Na3VO4, 0.5 U T-cell protein tyrosine phosphatase, 30° C.", "description": "Fluorescence polarization can also be used to measure phosphatase activity.\nPhosphatase enzyme was added to a high polarization mixture and as it removed the phosphate from the peptide, the antibody was released, and the polarization value went down, shown in FIG. 13. Two control experiments were performed. […] This assay was performed with all of the reaction and detection components present in a test tube. However, this reaction could also be done as an endpoint assay with aliquots of the reaction taken at incremental time points, or with different reactions started at the same time but terminated at incremental time points."}, "GFAP peptide": {"test_system": "GFAP peptide", "experiment": "Radioactive (32P) kinase assay of PKC isozymes on GFAP peptide", "type": "biochemical", "settings": "GFAP peptide 100 μg/ml, 10 μM ATP, 100 μM CaCl2, no EGTA"}, "[2]": {"biological_target": "T2, PKC Epsilon (ε) substrate peptide (Homo sapiens, UniProt Q02156)", "T2 construct": "made in house", "T2 sequence (Q02156 1-737)": "B1 Protein kinase C epsilon type", "experiment": "PKC activity assay, phospholipid dependence", "type": "biochemical", "description": "The purpose of this protocol is to provide the reader with the conditions that we use to determine the activity and phospholipid dependence of Protein Kinase C ε. This protein is purified to near homogeneity and may behave differently from crude preparations. The calculated molecular weight of the protein is 83.5 kDa. Apparent molecular weights of 89-96 kDa have been reported in the literature, and the protein may run as a doublet (1). […] With the assay described in this protocol, we typically see a two-fold phosphatidylserine stimulation of activity. There are many factors that can affect the phospholipid dependence of this enzyme and it will display different degrees of dependency for different substrates. The quality of the lipids used is very important and can affect the lipid dependency dramatically. The reaction conditions given in this protocol and the enzyme concentration ranges used give linear reaction kinetics over at least ten minutes.\n[…] of Phosphatidylserine (1.2 μl of 10 mg/ml PS Stock) and […] of diacylglycerol (0.6 μl of 2 mg/ml DAG Stock) are needed per reaction. Determine the total amount of each needed for the number of reactions one is running and make up 10% more lipid mix than required to account for pipetting loss.\nUsing a Hamilton syringe (remember to clean out with methanol), transfer the required volume of each lipid stock to a 12×75 mm glass test tube. Thoroughly dry down the chloroform with a nitrogen stream and gentle rotation of the tube. Resuspend the dried mixture with 10 μl buffer per reaction. Resuspension buffer is 10 mM HEPES, pH 7.4/0.3% Triton X-100. Vortex into solution/suspension. This will take at least two minutes of vortexing. Place the lipid mix in a 40° C. water bath for 5 minutes prior to adding to the reaction mix.\n1). Make up the reaction mix. All assays should be done in triplicate. Two blanks (reaction mix with no enzyme added) should be included and one tube for determining the total cpm's in a reaction.\n2). Dispense 60 μl of mix into each tube and place tubes at 30° C.\n3). Dilute the protein to be assayed to between 20 and 50 ng/μl.\n4). Add 2 μl of diluted enzyme to each tube at 20 second intervals. Blanks have no enzyme added.\n5). Stop reactions at 10 minutes by adding 6 μl 5% phosphoric acid.\n6). Incubate on ice for 5 minutes.\n7). Spot 5 μl of reaction mix on to two phosphocellulose membranes. These are the “Totals”.\n8). Transfer 55 μl from each tube to phosphocellulose membranes. Allow to dry. Wash the membranes three times with 5 ml 0.5% phosphoric acid per filter in a 400 ml beaker.\n9). Transfer membranes to scintillation vials and count (drying is not necessary). […]"}},
  "data": [
    {"molecule": "O=C(O)CN(CCN(CC(=O)O)CC(=O)O)CC(=O)O", "note": "[EDTA]", "values": [
      {"measurement": "EGF receptor kinase activity", "setting": "EGF receptor", "value": "inhibits"}
    ]},
    {"molecule": "[Na+].[Na+].[Na+].[O]=[V]([O-])([O-])[O-]", "note": "[vanadate, Na3VO4]", "values": [
      {"measurement": "polarization value (phosphatase activity)", "setting": "[1]", "value": "remained constant"}
    ]},
    {"molecule": "B1", "values": [
      {"measurement": "substrate phosphorylated (radioactive data for FIG. 6)", "setting": "GFAP peptide", "value": 1.47, "unit": "%"}
    ]},
    {"molecule": "B2", "values": [
      {"measurement": "% Activity", "setting": "[2]; No Lipid Activators", "value": 59, "unit": "%"},
      {"measurement": "Specific Activity", "setting": "[2]; No Lipid Activators", "value": 743},
      {"measurement": "% Activity", "setting": "[2]; PS/DAG", "value": 100, "unit": "%"},
      {"measurement": "Specific Activity", "setting": "[2]; PS/DAG", "value": 1250}
    ]}
  ]
}
